Measurements as given in patent publication US20230038638A1, “COMPLEMENT FACTOR I-RELATED COMPOSITIONS AND METHODS” (published 2023).
Changes are numbered by the printed parent chain.

Experiments:
human C4b (human) [1] = molecular target: T1, human C4b (human) (UniProt P0C0L4)
T1 sequence: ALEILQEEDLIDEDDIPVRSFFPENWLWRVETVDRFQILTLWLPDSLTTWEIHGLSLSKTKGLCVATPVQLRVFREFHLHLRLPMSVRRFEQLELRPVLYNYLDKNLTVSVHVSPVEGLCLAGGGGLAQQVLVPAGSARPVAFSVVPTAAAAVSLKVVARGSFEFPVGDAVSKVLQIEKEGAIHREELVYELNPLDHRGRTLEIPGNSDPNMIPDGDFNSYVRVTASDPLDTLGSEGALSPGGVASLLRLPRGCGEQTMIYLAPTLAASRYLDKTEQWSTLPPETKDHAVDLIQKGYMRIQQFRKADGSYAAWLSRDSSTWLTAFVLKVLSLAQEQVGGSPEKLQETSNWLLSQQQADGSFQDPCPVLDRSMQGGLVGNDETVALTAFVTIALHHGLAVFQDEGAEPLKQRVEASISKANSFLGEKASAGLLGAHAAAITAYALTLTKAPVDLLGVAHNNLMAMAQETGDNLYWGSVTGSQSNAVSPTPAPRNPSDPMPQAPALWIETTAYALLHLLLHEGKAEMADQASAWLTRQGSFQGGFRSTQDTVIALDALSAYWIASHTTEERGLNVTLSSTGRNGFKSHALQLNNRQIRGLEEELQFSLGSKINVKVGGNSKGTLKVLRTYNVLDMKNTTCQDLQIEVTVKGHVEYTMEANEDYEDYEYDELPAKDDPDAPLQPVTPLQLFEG

human C4b (human) [2] = molecular target: T2, human C4b (human) (UniProt P0C0L5)
T2 sequence: T1 sequence with A151T, D317G, P364L, C365S, L368I, D369H, N420S, V451A, L454R, S530A

[3] = molecular target: soluble human C3b (human) (UniProt P01024)

| Substance | C4c EC50 (nM) (human C4b (human) [1]) | C4b Screen Ref Fold (fold vs CFI-HSA wild type) (human C4b (human) [2]) | iC3b Screen Ref Fold (fold vs CFI-HSA wild type) [3] | C4c EC50 (human C4b (human) [1]) [nM] | C4b Screen Ref Fold (fold of CFI-HSA wild type) (human C4b (human) [2]) | iC3b Screen Ref Fold (fold of CFI-HSA wild type) [3] |
| --- | --- | --- | --- | --- | --- | --- |
| CFI-HSA variant E457G; E461Q-R462K; F464Y (enzyme) | 65.2 | 5.5 | 0.69 | – | – | – |
| CFI-HSA variant E457G; K534Q (enzyme) | – | – | – | 55.2 | 5.24 | 1.15 |
| CFI-HSA variant E457G; N531G; E416A (enzyme) | 5.4 | – | – | – | 5.02 | 2.66 |
| CFI-HSA variant E457G; N531G; E461Q; R462K; F464Y (enzyme) | 37.9 | 5.97 | 0.83 | – | – | – |
| CFI-HSA variant E457G; N531G; P535G (enzyme) | – | – | – | 54 | 5.48 | 1.27 |
| CFI-HSA variant E457G; N531G; P535G; D425K (enzyme) | – | – | – | 39.4 | 5.2 | 1.3 |
| CFI-HSA variant E457G; N531G; P535G; N422K (enzyme) | – | – | – | 51.6 | 4.46 | 1.87 |
| CFI-HSA variant E457G; P535G; K534Q (enzyme) | – | – | – | 154 | 3.85 | 0.82 |
| CFI-HSA variant E457G; P535G; P558S (enzyme) | – | – | – | 186 | 3.18 | 0.81 |
| CFI-HSA variant E457G; P558S (enzyme) | – | – | – | 65.9 | 4.98 | 1.04 |
| CFI-HSA variant E487A (enzyme) | – | – | – | 104 | 1.47 | 1.38 |
| CFI-HSA variant E487K (enzyme) | – | – | – | 119 | 1.11 | 1.35 |
| CFI-HSA variant E530D-N531G; G533A-K534Q-P535K-E536N (enzyme) | 470 | 1.4 | 1.63 | – | – | – |
| CFI-HSA variant F464G (enzyme) | – | – | – | > 1000 | 0.24 | 0.01 |
| CFI-HSA variant K488E (enzyme) | – | – | – | > 1000 | 0.78 | 1.07 |
| CFI-HSA variant N531G; D425R; E416A (enzyme) | 81.4 | – | – | – | 2.64 | 3.03 |
| CFI-HSA variant N531G; E457G; E461Q; F464Y (enzyme) | 44.1 | 6.8 | 0.27 | – | – | – |
| CFI-HSA variant N531G; K534Q (enzyme) | – | – | – | 43.5 | 5.23 | 1.39 |
| CFI-HSA variant N531G; P535G (enzyme) | – | – | – | 126 | 4.19 | 1.28 |
| CFI-HSA variant N531G; P535G; D425K (enzyme) | – | – | – | 78.9 | 4.53 | 1.35 |
| CFI-HSA variant N531G; P535G; K534Q (enzyme) | – | – | – | 118 | 4.47 | 0.93 |
| CFI-HSA variant N531G; P535G; P558S (enzyme) | – | – | – | 136 | 3.82 | 0.95 |
| CFI-HSA variant N531G; P558S (enzyme) | – | – | – | 63.2 | 5.28 | 1.35 |

| Substance | C4c EC50 (nM) (human C4b (human) [1]) | C4b Screen Ref Fold (fold vs CFI-HSA wild type) (human C4b (human) [2]) | iC3b Screen Ref Fold (fold vs CFI-HSA wild type) [3] | C4c EC50 (human C4b (human) [1]) [nM] | C4b Screen Ref Fold (fold of CFI-HSA wild type) (human C4b (human) [2]) | iC3b Screen Ref Fold (fold of CFI-HSA wild type) [3] |
| --- | --- | --- | --- | --- | --- | --- |
| CFI-HSA variant R321A (enzyme) | 897 | 0.22 | 0.55 | – | – | – |
| CFI-HSA variant S552G; P558S (enzyme) | – | – | – | 375 | 1.96 | 2.1 |
| CFI-HSA variant S552G; Y553H (enzyme) | – | – | – | 74.5 | 2.53 | 0.26 |
| CFI-HSA variant S552G; Y553H; F559L (enzyme) | – | – | – | 224 | 2.42 | 0.23 |
| CFI-HSA variant S552G; Y553H; F559L; V565I (enzyme) | – | – | – | 83.6 | 3.1 | 0.27 |
| CFI-HSA variant Y408L; E457G; R462K; F464Y; N531G; GGSSGG (SEQ ID NO: 6); CR1 (ccp15-17) (from UniProt P17927) (enzyme) | 76.4 | – | – | – | – | – |
| CFI-HSA variant Y408L; E461Q; F464Y (enzyme) | – | – | – | 105 | – | – |
| CFI-HSA variant Y408L; E530K; N531G (enzyme) | – | – | – | 111 | – | – |
| CFI-HSA variant Y408L; E530R; N531G (enzyme) | – | – | – | 229 | – | – |
| CFI-HSA variant Y408L; E530Y (enzyme) | > 1000 | – | – | – | – | – |
| CFI-HSA variant Y408L; N531G (enzyme) | – | – | – | 71.9 | – | – |
| CFI-HSA variant Y408L; N531G; D425R; E530Y (enzyme) | 41.2 | – | – | – | – | – |
| CFI-HSA variant Y408L; N531G; E457G; F464Y (enzyme) | – | – | – | 23.2 | – | – |
| CFI-HSA variant Y408L; N531G; E461Q; F464Y (enzyme) | – | – | – | 46.7 | – | – |
| CFI-HSA variant Y408L; N531G; E461Q; R462K (enzyme) | – | – | – | 24.5 | – | – |
| CFI-HSA variant Y408L; N531G; E530Y (enzyme) | 54 | – | – | – | – | – |
| CFI-HSA variant Y408L; N531G; F464Y (enzyme) | – | – | – | 66.5 | – | – |
| CFI-HSA variant Y408L; N531G; P535G; WT; GGSSGG (SEQ ID NO: 6); CR1(ccp15-17) (enzyme) | – | – | – | 62.4 | – | – |
| CFI-HSA variant Y408L; N531G; R462K (enzyme) | – | – | – | 126 | – | – |
| CFI-HSA variant Y408L; N531G; R462K; F464Y (enzyme) | – | – | – | 98.2 | – | – |
| CFI-HSA variant Y408L; N531G; WT; GGSSGG (SEQ ID NO: 6); CR1(ccp15-17) (enzyme) | – | – | – | 40.9 | – | – |
| CFI-HSA variant Y553K (enzyme) | 198 | – | – | – | – | – |
